According to patent EP4682162A1 (Neowise Biotechnology Co., Ltd., dated 2026):

Target: T1, labeled peptide-MHC (HLA-A*02:01) tetramer (…-HLA-A*02:01 tetramer) (human)
T1 construct: Labeled tetramer used for flow cytometry staining; also called pMHC; pMHC tetramer
Assay: tetramer staining of sorted T cell clones, flow cytometry

| binding result | Binder |
| --- | --- |
| binds | nwTCR-2286 (TCR, V domains shown, TCR on T cells) V domain 1: GQQLNQSPQSMFIQEGEDVSMNCTSSSIFNTWLWYKQDPGEGPVLLIALYKAGELTSNGRLTAQFGITRKDSFLNISASIPSDVGIYFCAGPEDDKIIFGKGTRLHILP V domain 2: DSGVTQTPKHLITATGQRVTLRCSPRSGDLSVYWYQQSLDQGLQFLIQYYNGEERAKGNILERFSAQQFPDLHSELNLSSLELGDSALYFCASSPWLQGGNEQFFGPGTRLTVLE |
| binds | nwTCR-2718 (TCR, V domains shown, TCR on T cells) V domain 1: GQQLNQSPQSMFIQEGEDVSMNCTSSSIFNTWLWYKQDPGEGPVLLIALYKAGELTSNGRLTAQFGITRKDSFLNISASIPSDVGIYFCAGFSQGGSEKLVFGKGTKLTVNP V domain 2: DSGVTQTPKHLITATGQRVTLRCSPRSGDLSVYWYQQSLDQGLQFLIQYYNGEERAKGNILERFSAQQFPDLHSELNLSSLELGDSALYFCASSPWTAGGNTIYFGEGSWLTVVE |
| binds | nwTCR-2418 (TCR, V domains shown, TCR on T cells) V domain 1: DQQVKQNSPSLSVQEGRISILNCDYTNSMFDYFLWYKKYPAEGPTFLISISSIKDKNEDGRFTVFLNKSAKHLSLHIVPSQPGDSAVYFCAASGVRGQNFVFGPGTRLSVLP V domain 2: DSGVTQTPKHLITATGQRVTLRCSPRSGDLSVYWYQQSLDQGLQFLIQYYNGEERAKGNILERFSAQQFPDLHSELNLSSLELGDSALYFCASSPWLAGGREQYFGPGTRLTVTE |
| binds | nwTCR-2170 (TCR, V domains shown, TCR on T cells) V domain 1: GQQLNQSPQSMFIQEGEDVSMNCTSSSIFNTWLWYKQDPGEGPVLLIALYKAGELTSNGRLTAQFGITRKDSFLNISASIPSDVGIYFCAGQASGTYKYIFGTGTRLKVLA V domain 2: EAQVTQNPRYLITVTGKKLTVTCSQNMNHEYMSWYRQDPGLGLRQIYYSMNVEVTDKGDVPEGYKVSRKEKRNFPLILESPSPNQTSLYFCASSSGTSDEQYFGPGTRLTVTE |
| binds | nwTCR-2915 (TCR, V domains shown, TCR on T cells) V domain 1: GESVGLHLPTLSVQEGDNSIINCAYSNSASDYFIWYKQESGKGPQFIIDIRSNMDKRQGQRVTVLLNKTVKHLSLQIAATQPGDSAVYFCAESYGQKLLFARGTMLKVDL V domain 2: EAQVTQNPRYLITVTGKKLTVTCSQNMNHEYMSWYRQDPGLGLRQIYYSMNVEVTDKGDVPEGYKVSRKEKRNFPLILESPSPNQTSLYFCASSFWSAGELFFGEGSRLTVLE |
| binds | nwTCR-2285 (TCR, V domains shown, TCR on T cells) V domain 1: KNEVEQSPQNLTAQEGEFITINCSYSVGISALHWLQQHPGGGIVSLFMLSSGKKKHGRLIATINIQEKHSSLHITASHPRDSAVYICALNSDSNYQLIWGAGTKLIIKP V domain 2: EAQVTQNPRYLITVTGKKLTVTCSQNMNHEYMSWYRQDPGLGLRQIYYSMNVEVTDKGDVPEGYKVSRKEKRNFPLILESPSPNQTSLYFCATSPGTLYEQYFGPGTRLTVTE |
| binds | nwTCR-2793 (TCR, V domains shown, TCR on T cells) V domain 1: QKEVEQNSGPLSVPEGAIASLNCTYSDRVSQSFFWYRQYSGKSPELIMSIYSNGDKEDGRFTAQLNKASQYVSLLIRDSQPSDSATYLCAVVSSNDYKLSFGAGTTVTVRA V domain 2: EAQVTQNPRYLITVTGKKLTVTCSQNMNHEYMSWYRQDPGLGLRQIYYSMNVEVTDKGDVPEGYKVSRKEKRNFPLILESPSPNQTSLYFCASSPGTIGELFFGEGSRLTVLE |
| binds | nwTCR-2719 (TCR, V domains shown, TCR on T cells) V domain 1: GIQVEQSPPDLILQEGANSTLRCNFSDSVNNLQWFHQNPWGQLINLFYIPSGTKQNGRLSATTVATERYSLLYISSSQTTDSGVYFCAVLAPGTYKYIFGTGTRLKVLA V domain 2: EAQVTQNPRYLITVTGKKLTVTCSQNMNHEYMSWYRQDPGLGLRQIYYSMNVEVTDKGDVPEGYKVSRKEKRNFPLILESPSPNQTSLYFCASSWGSGYEQYFGPGTRLTVTE |
| binds | nwTCR-2555 (TCR, V domains shown, TCR on T cells) V domain 1: AQSVSQHNHHVILSEAASLELGCNYSYGGTVNLFWYVQYPGQHLQLLLKYFSGDPLVKGIKGFEAEFIKSKFSFNLRKPSVQWSDTAEYFCAVKMDSSYKLIFGSGTRLLVRP V domain 2: DGGITQSPKYLFRKEGQNVTLSCEQNLNHDAMYWYRQDPGQGLRLIYYSQIVNDFQKGDIAEGYSVSREKKESFPLTVTSAQKNPTAFYLCASLGLNYNEQFFGPGTRLTVLE |
| binds | nwTCR-1906 (TCR, V domains shown, TCR on T cells) V domain 1: RKEVEQDPGPFNVPEGATVAFNCTYSNSASQSFFWYRQDCRKEPKLLMSVYSSGNEDGRFTAQLNRASQYISLLIRDSKLSDSATYLCVVTQAGTALIFGKGTTLSVSS V domain 2: not shown |
| binds | nwTCR-2523 (TCR, V domains shown, TCR on T cells) V domain 1: RKEVEQDPGPFNVPEGATVAFNCTYSNSASQSFFWYRQDCRKEPKLLMSVYSSGNEDGRFTAQLNRASQYISLLIRDSKLSDSATYLCVVNRGSQGNLIFGKGTKLSVKP V domain 2: DAGVTQSPTHLIKTRGQQVTLRCSPKSGHDTVSWYQQALGQGPQFIFQYYEEEERQRGNFPDRFSGHQFPNYSSELNVNALLLGDSALYLCASSLVDYEQYFGPGTRLTVTE |
| binds | nwTCR-2383 (TCR, V domains shown, TCR on T cells) V domain 1: GIQVEQSPPDLILQEGANSTLRCNFSDSVNNLQWFHQNPWGQLINLFYIPSGTKQNGRLSATTVATERYSLLYISSSQTTDSGVYFCAVMPSGTYKYIFGTGTRLKVLA V domain 2: EAQVTQNPRYLITVTGKKLTVTCSQNMNHEYMSWYRQDPGLGLRQIYYSMNVEVTDKGDVPEGYKVSRKEKRNFPLILESPSPNQTSLYFCASSPSSGYNEQFFGPGTRLTVLE |
| binds | nwTCR-2720 (TCR, V domains shown, TCR on T cells) V domain 1: SQQGEEDPQALSIQEGENATMNCSYKTSINNLQWYRQNSGRGLVHLILIRSNEREKHSGRLRVTLDTSKKSSSLLITASRAADTASYFCATDLSGAGSYQLTFGKGTKLSVIP V domain 2: EAQVTQNPRYLITVTGKKLTVTCSQNMNHEYMSWYRQDPGLGLRQIYYSMNVEVTDKGDVPEGYKVSRKEKRNFPLILESPSPNQTSLYFCASSLGTGFGELFFGEGSRLTVLE |
| binds | nwTCR-2316 (TCR, V domains shown, TCR on T cells) V domain 1: TQLLEQSPQFLSIQEGENLTVYCNSSSVFSSLQWYRQEPGEGPVLLVTVVTGGEVKKLKRLTFQFGDARKDSSLHITAAQPGDTGLYLCAGVDNYGQNFVFGPGTRLSVLP V domain 2: DAGVIQSPRHEVTEMGQEVTLRCKPISGHNSLFWYRQTMMRGLELLIYFNNNVPIDDSGMPEDRFSAKMPNASFSTLKIQPSEPRDSAVYFCASSIAALGFGELFFGEGSRLTVLE |
| binds | nwTCR-2583 (TCR, V domains shown, TCR on T cells) V domain 1: GQSLEQPSEVTAVEGAIVQINCTYQTSGFYGLSWYQQHDGGAPTFLSYNALDGLEETGRFSSFLSRSDSYGYLLLQELQMKDSASYFCALGTEDKIIFGKGTRLHILP V domain 2: EAQVTQNPRYLITVTGKKLTVTCSQNMNHEYMSWYRQDPGLGLRQIYYSMNVEVTDKGDVPEGYKVSRKEKRNFPLILESPSPNQTSLYFCASRISLGANYGYTFGSGTRLTVVE |
| binds | nwTCR-2228 (TCR, V domains shown, TCR on T cells) V domain 1: QKEVEQNSGPLSVPEGAIASLNCTYSDRGSQSFFWYRQYSGKSPELIMFIYSNGDKEDGRFTAQLNKASQYVSLLIRDSQPSDSATYLCAGHTGNQFYFGTGTSLTVIP V domain 2: EPEVTQTPSHQVTQMGQEVILRCVPISNHLYFYWYRQILGQKVEFLVSFYNNEISEKSEIFDDQFSVERPDGSNFTLKIRSTKLEDSAMYFCASREDGYEQYFGPGTRLTVTE |
